The values that follow come from publication PMC11009412, “Pathogenic mutations of human phosphorylation sites affect protein–protein interactions” (Nature Communications, 2024).

For the experiment, the system named is BirA*-FLAG-GATAD1 variants in Flp-In-293 cells. As to the kind of experiment: BioID proximity labelling of full-length GATAD1 variants (SILAC). Type of experiment: cell-based, human. The settings on record: GATAD1 WT vs S102P, significant proteins only; for Log2_Ratio.H.L.normalized.WT_S102P_forward: forward experiment (label swap performed, sign inverted against the H/L ratio); for Log2_Ratio.H.L.normalized.WT_S102P_forward / Log2_Ratio.H.L.normalized.WT_S102P_reverse: log2 of normalized H/L ratio; for Ratio.H.L.normalized.WT_S102P_forward: forward experiment; for Log2_Ratio.H.L.normalized.WT_S102P_reverse / Ratio.H.L.normalized.WT_S102P_reverse: reverse experiment. The text has this:
The GATAD1 gene variants were ordered in a pTwist ENTR Kozak vector from Twist Bioscience. The genes were then transferred to a pDEST_pcDNA5_BirA_FLAG_Nterm vector[97] using the Gateway Clonase II system (Thermo Fisher Scientific). The resulting vectors, pEXPR_GATAD1-WT_N-term_BirA_FLAG, pEXPR_GATAD1-S102P_N-term_BirA_FLAG, pEXPR_GATAD1-S102D_N-term_BirA_FLAG, and pEXPR_GATAD1-S102A_N-term_BirA_FLAG, were used to generate tetracycline-inducible stable Flp-In^TM-293 T-REx cells. A 6-well plate was co-transfected with 0.5 µg of the pEXPR plasmid and 1 µg of the pOG44 Flp-recombinase expression vector (Thermo Fisher Scientific) using 4.5 µg of PEI (Polysciences) as a transfection reagent. The following day, the cells were trypsinized and transferred to a 10 cm dish containing DMEM supplemented with 10% FCS and 200 µg/ml hygromycin B (Invivogen) for selection. The cells were cultured for approximately 18 days with media exchange every 3 days until visible colonies were observed. After around 18 days, the colonies were trypsinized and transferred to another 10 cm dish for further characterization and experiments.
Stable Flp-In^TM-293 cell lines expressing GATAD1 variants were cultured using SILAC light (Lys0, Arg0) and SILAC heavy (Lys8, Arg10) media, as explained in the cell culture section. After full labeling, cells were split into 15 cm dishes and were treated with 1 μg/mL tetracycline for 24 h to induce the expression of GATAD1. After the induction period, cells were incubated with 50 μM biotin overnight for proximity biotinylation. As a control, wild-type GATAD1 cells, without biotin or tetracycline addition, were used. Samples were multiplexed, as shown in Supplementary Fig. 41A with both forward and reverse label swap (n = 2). Cells were then lysed in lysis buffer (50 mM Tris-HCl pH 7.5, 150 mM NaCl, 1% Triton X-100, 1 mM EDTA, 1 mM EGTA, 0.1% SDS) with freshly added protease inhibitors and 1% sodium deoxycholate. To digest the excess DNA, 1 μl of Benzonase was added, and the samples were incubated for 20 min at 37 °C. Biotinylated proteins were enriched for 3 h at 4 °C using streptavidin-sepharose beads (GE Cat# 17-5113-01). Beads were pre-washed twice with 0.01% BSA and twice with lysis buffer. After enrichment, the beads were washed one time with lysis buffer, two times with washing buffer (50 mM HEPES-KOH pH 8.0, 100 mM KCl, 10% glycerol, 2 mM EDTA, 0.1% NP-40), and six times with 50 mM ammonium bicarbonate. Beads were resuspended in ammonium bicarbonate, and an on-bead protein digest with 1 μg of trypsin followed overnight. The next day, the digested proteins were transferred to a fresh tube and were incubated with 10 mM DTT for 30 min at 37 °C and with 55 mM iodoacetamide for 20 min at 37 °C in the dark. Samples were desalted with StageTips.
Peptides were separated using reversed-phase liquid chromatography (EASY nLC II 1200, Thermo Fisher Scientific) with self-made C18 microcolumns (20 cm long) packed with ReproSil-Pur C18-AQ 1.9 μm resin (Dr. Maisch, cat# r119.aq.0001). The chromatography system was coupled online to the electrospray ion source (Proxeon) of an Orbitrap Exploris 480 mass spectrometer (Thermo Fisher Scientific). The mobile phase consisted of buffer A (0.1% formic acid and 5% acetonitrile) and buffer B (0.1% formic acid and 80% acetonitrile). Peptides were eluted using a gradient with increasing concentrations of buffer B over 110 minutes, at a flow rate of 250 nl/min. Mass spectrometry data was acquired in data-dependent mode with settings for one full scan (resolution: 60,000; m/z range: 350–1600; normalized AGC target: 300%; maximum injection time: 10 ms), followed by top 20 MS/MS scans using higher-energy collisional dissociation (resolution: 15,000; m/z range: 200–2000; normalized AGC target: 100%; maximum injection time: 120 ms; isolation width: 1.3 m/z; normalized collision energy: 28%).
Raw files were analyzed with MaxQuant, version 2.0.3.0. […]

B1: KNOP1 (protein, UniProt Q1ED39 1-458, looked up)
Lysine-rich nucleolar protein …: MITKTHKVDLGLPEKKKKKKVVKEPETRYSVLNNDDYFADVSPLRATSPSKSVAHGQAPEMPLVKKKKKKKKGVSTLCEEHVEPETTLPARRTEKSPSLRKQVFGHLEFLSGEKKNKKSPLAMSHASGVKTSPDPRQGEEETRVGKKLKKHKKEKKGAQDPTAFSVQDPWFCEAREARDVGDTCSVGKKDEEQAALGQKRKRKSPREHNGKVKKKKKIHQEGDALPGHSKPSRSMESSPRKGSKKKPVKVEAPEYIPISDDPKASAKKKMKSKKKVEQPVIEEPALKRKKKKKRKESGVAGDPWKEETDTDLEVVLEKKGNMDEAHIDQVRRKALQEEIDRESGKTEASETRKWTGTQFGQWDTAGFENEDQKLKFLRLMGGFKNLSPSFSRPASTIARPNMALGKKAADSLQQNLQRDYDRAMSWKYSRGAGLGFSTAPNKIFYIDRNASKSVKLED
Take B1: the Log2_Ratio.H.L.normalized.WT_S102P_forward amounted to 1.624, the Ratio.H.L.normalized.WT_S102P_forward is recorded as 0.3245, the Log2_Ratio.H.L.normalized.WT_S102P_reverse is listed as 1.083 and the Ratio.H.L.normalized.WT_S102P_reverse is recorded as 2.1181.

B2: MSANTD2 (protein, UniProt Q6P1R3 1-559, looked up)
Myb/SANT-like DNA-binding …: MAAPCGSELPANSPLKIPKMEVLSPASPGGLSDGNPSLSDPSTPRGASPLGPGSAAGSGAAASGGLGLGLGGRSAASSSVSFSPGGGGGGAAAAAAAACRGMSWTPAETNALIAVWGNERLVEARYQQLEGAGTVFGSKAPGPAMYERVSRALAELGYERTPSQCRERIKTLRRCYSRVKEHGVGKRKSSYTFEQLEQVFGQGGWDAQPCQPVLINSSGLYQELESDGSTMEDYSQEDWGNHSQDLHGYPTDQELDEIPVTKRTLKIKQESSEEAQKRDIMQNIVQILESVQLKWELFQSWTDFSRLHLSNKLAIFGIGYNTRWKEDIRYHYAEISSQVPLGKRLREYFNSEKPEGRIIMTRVQKMNWKNVYYKFLEITISEARCLELHMEIDWIPIAHSKPTGGNVVQYLLPGGIPKSPGLYAIGYEECIERPLSPHMEQSSLDPGKEGRVDLETLSAQASLQVEIEPTRIIYCYLGIAEVRTLQQCLFLHFQANTKTFSKDWVGINGFLSQNCIVDPGVSPKSIYIKFVEVERDFLSAGSLVECLEKAIGYPLKFNN
For B2, the Log2_Ratio.H.L.normalized.WT_S102P_forward was 1.423, the Ratio.H.L.normalized.WT_S102P_forward is listed as 0.373, the Log2_Ratio.H.L.normalized.WT_S102P_reverse was 1.156 and the Ratio.H.L.normalized.WT_S102P_reverse is listed as 2.2282.
